Test: yeast display, Sf9 membrane polyspecificity reagent, FACS + sequencing; frameworks hold sequencing errors
In short: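 Nanobodies from a synthetic yeast display library (Saccharomyces cerevisiae BJ5465), induced 36–48 hours with galactose, were stained 1 hour at 4 °C with 10% biotinylated, detergent-solubilized Sf9 membrane reagent, enriched on streptavidin microbeads, then FACS-sorted. Anti-HA (expression) and streptavidin (reagent binding) fluorescence set low and high (top ~1%) gates. Polyreactivity labels come from the gate of origin. Genes were colony-PCR amplified, MiSeq 2 × 250 sequenced and filtered by CDR length.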

QVQLVESGGGLVQAGGSLRLSCAASGRIFDIYTMGWYRQAPGKERELVASITKRGGSTYYADSVKGRFTISRDNAKNTVYLQMNSLKPEDTAVYYCNVAGKQKPYYVTTRLDYWGQGTQVTVSS
polyreactivity (PSR sort gate): high polyreactivity

QVQLVESGGGLVQAGGSLRLSCAASGRIFDKNAMGWYRQAPGKERELVAAISGGGRTYYADSVKGRFTISRDNAKNTVYLLMNSLKPEDTAVYYCNVPYYYTRGSYGYWGQGTQVTVSS
polyreactivity (PSR sort gate): low polyreactivity

QVQLVESGGGLVQAGGSLRLSCAASGRIFDKYAMGWYRQAPGKERYLVAAIDWSGGSTYYADSVKGRFTISRDNAKNTVYLQMNRLKPEDNAVYYCAAYWYYEDGQSEARLYGYDYWGQGTQVTVSS
polyreactivity (PSR sort gate): low polyreactivity

QVQLVESGGGLVQAGGSLRLSCAASGRIFDLNAMGWYSQAPGKERELVAAITTNDGDTYYADSVKGRFTISRDTAKNTVYLQMNSLKPEDTAVYYCAAVSGSTSEYEYWGQGTEVTVSS
polyreactivity (PSR sort gate): low polyreactivity

QVQLVESGGGLVQAGGSLRLSCAASGRIFDLNTMGWYRQAPGKERELVAAISSGGSTYYADSVNGRFTISRDNAKNTVYIQMNSLKPEDTAVYYCADAKIRGYLIRMYWGQRTQVTVSS
polyreactivity (PSR sort gate): low polyreactivity

QVQLVESGGGLVQAGGSLRLSCAASGRIFDNNAMGWYIQAPGKERELVAAIDWPGGSTDYADSVKGRFTISRDNAKNTVYLQMNSLIPEDTAVYYCVAGNVPYWHGNSYDYWGQGTQVTVSS
polyreactivity (PSR sort gate): low polyreactivity

QVQLVESGGGLVQAGGSLRLSCAASGRIFDNYAMGWYRQAPGKDREWVAAISSRGRSTYYADSVKGRFTISRDNAKNTVYLQMNSLKPEDTAVYYCAKDLGYRGRYNYWGQGTQVTVSS
polyreactivity (PSR sort gate): low polyreactivity

QVQLVESGGGLVQAGGSLRLSCAASGRIFDQNAMGWYRQAPGKERELVAAITWSGGSTNYADSVKGRFTISRDNAKNTVYLQMNSLKPEDTAVYYCATDGKPSFYSFDYWGQGTQVTVSS
polyreactivity (PSR sort gate): low polyreactivity

QVQLVESGGGLVQAGGSLRLSCAASGRIFDRNAMGWYRQAPGKERELVARIDPGDDTNYADSVKGRFTISRDNAKNTVYLQMNSLKPEDTAVYYCAADGVVVVAADMYYWGQGTQVTVSS
polyreactivity (PSR sort gate): low polyreactivity

QVQLVESGGGLVQAGGSLRLSCAASGRIFDRYAMGWYRQAPGKERELVAAISDRGGSTYYADSVKGRFTISRDNAKNTVYLQMNSLKPEDTAVFYCAKGPSGVRTYREYDSWGQGTQVTVSS
polyreactivity (PSR sort gate): low polyreactivity

QVQLVESGGGLVQAGGSLRLSCAASGRIFDSNAMGWYRQAPGKERELVAAITYSGGGTFYADSVKGRFTISRDNAKNTVYLQMNRLKPEDTAVYYCNAGYFTEYNSWGQGTQVTVSS
polyreactivity (PSR sort gate): high polyreactivity

QVQLVESGGGLVQAGGSLRLSCAASGRIFDTNVMGWYRQAPGKERELVAAISSGGSTYYADSVKGRFTISRDNAKNTVYLQMNSLKPEDTAVYFCAAESRTSRARRYYWGQGTQVTVSS
polyreactivity (PSR sort gate): high polyreactivity

QVQLVESGGGLVQAGGSLRLSCAASGRIFDVNAMGWYRQAPGKERELVAAITYSDGSTYYADSVTGRFTISRDNAKNTVYLQMNSLKPEDTAVDYCAATQEPVTPQPYGYWGQGTQVTVSS
polyreactivity (PSR sort gate): low polyreactivity

QVQLVESGGGLVQAGGSLRLSCAASGRIFDVYAMGWYRQAPGKERELVAGITYSGGSTYYADSVKGRFTISRDNAKNTVYVQMNSLKPEDTAVYYCAALNGDPYVQLLEDYWGQGTQVTVSS
polyreactivity (PSR sort gate): low polyreactivity

QVQLVESGGGLVQAGGSLRLSCAASGRIFDYNGMGWYRQAPGKERELVAAIRLSDGSTYYADSVKGRFTISRDNAKNTVYLQMNSQKPEDTAVYYCADVGKNRSWYDYWGQGSQVTVSS
polyreactivity (PSR sort gate): high polyreactivity

QVQLVESGGGLVQAGGSLRLSCAASGRIFDYNTMGWYRQAPGKEREFVAAITSSGGRTYYADSVKGRFTISRDNAKNTVYLQMNSLKPEDTAVYYCAARLNIYYRRMGYWGQGTQVTVSS
polyreactivity (PSR sort gate): high polyreactivity

QVQLVESGGGLVQAGGSLRLSCAASGRIFDYYAMGWYRQAPGKERELVAAISSSVGNTYYADSVKGRFTISRDNAKNTVYLQMNSLKPEDTAVYYFADYSYVRSSYEVEDDYWGQGTQVTVSS
polyreactivity (PSR sort gate): low polyreactivity

QVQLVESGGGLVQAGGSLRLSCAASGRIFDYYAMGWYRQAPGKERELVATITSGSRTYYADSVKGRFTISRDNAKNTVYLQMNSLKPEDTAVYYCNTVSFKRLGWRYDYWGQGTQVTVSS
polyreactivity (PSR sort gate): high polyreactivity

QVQLVESGGGLVQAGGSLRLSCAASGRIFDYYTMGWYRQAPGKERELVAGINSGDSTYYADYVKGRFTISRDNAKNTVYLQMNSLKPEDTAVYYCAASADWWYEYWGQGTQVTVSS
polyreactivity (PSR sort gate): high polyreactivity

QVQLVESGGGLVQAGGSLRLSCAASGRIFEIYAMGWYRQAPGKERELVAAITDSGGSTYYAYSVKGRFTISRDNAKNTVYLQINSLKPEDTAVYYCAAVGYSYETWLFYYWGQGTQVTVSS
polyreactivity (PSR sort gate): low polyreactivity

QVQLVESGGGLVQAGGSLRLSCAASGRIFEKYAMRWYREAPGKERELVAAMTRSGGRTYYADSVKGRFTISRDNAKNTVYLQMNSQKPEDTAVYYCAARYVSRFDWGQGTQVTVSS
polyreactivity (PSR sort gate): high polyreactivity

QVQLVESGGGLVQAGGSLRLSCAASGRIFEPYAMGWYRQAPGKERELVAAISWSGTSTRYADSVKGRFTISRDNAKNTVYLQMNSLKPEDTAVYYCAARGNNPARGGYWGQGTQVTVSS
polyreactivity (PSR sort gate): high polyreactivity

QVQLVESGGGLVQAGGSLRLSCAASGRIFERNAKGWYRQAPGKERELVAALTYNGGRTYYADSVKGRFTITRDNAKNTVYLQLNSLKPEDTAVYNCNAQSRVTRSSYRGSPRYDYWGQGTQVTVSS
polyreactivity (PSR sort gate): high polyreactivity

QVQLVESGGGLVQAGGSLRLSCAASGRIFERYAMGRYRQAPGKERELVAAISVSGSGTYYADSVKGRFTISRDNAKNTVYLQINSLKPEDTAVYYCAADASLLGLYYYLFYLEVNYWGQGTQVTVSS
polyreactivity (PSR sort gate): low polyreactivity

QVQLVESGGGLVQAGGSLRLSCAASGRIFERYAMGWYRQAPGKERELVAGISISGGGTYYADSVKGRFTISRDIAKNTVYFQMNSLKPEDTAVYYCAATFPREEYGYWGQGTQVTVSS
polyreactivity (PSR sort gate): low polyreactivity

QVQLVESGGGLVQAGGSLRLSCAASGRIFERYAMGWYRQAPGKERELVAGISISGGGTYYADSVKGRFTISRDNAKNTFYLQMNSLNPEDTAVYYCSATFPREEYGYWGQGTQVTVSS
polyreactivity (PSR sort gate): low polyreactivity

QVQLVESGGGLVQAGGSLRLSCAASGRIFEYNAMGWYRQAPGKERELVAAITSDGSTNYADSVKGRFTISRDNEKNTVYLQMNSLKPEDTAVYYCNTRYSLYTKYAYYDEHDYWGQGTQVTVSS
polyreactivity (PSR sort gate): low polyreactivity

QVQLVESGGGLVQAGGSLRLSCAASGRIFEYYAMGWYRQAPGKERELVAAIRSGGRTYYADSVKGRFTISRDNAKNTVYLQMNSLKPEDTAVYYCNKLYRGGYGYWGQGTQVTVSS
polyreactivity (PSR sort gate): high polyreactivity

QVQLVESGGGLVQAGGSLRLSCAASGRIFFIYAMGWYRQAPGKERELVAAISYDSGSTYYADSVKGRFTISRDNAKNTVSLQMNSLKPEDTAVYYCAAEWGLVIYSTYGYDYWGQGTQVTVSS
polyreactivity (PSR sort gate): low polyreactivity

QVQLVESGGGLVQAGGSLRLSCAASGRIFFLYAMGWSRQAPGKERELVAAITKSGGSTYADSVKGRYTISRDNAKNPVYLQMNSLKPEDTAVYYCATENTDSRDSGYIVKYGSDYWGQRTQVTVSS
polyreactivity (PSR sort gate): low polyreactivity

QVQLVESGGGLVQAGGSLRLSCAASGRIFFNSAMGWYRQAPGKERELVAAIRGGGSTYADSVKGRFTISRDNAKNTVYLQMNSLKPEDTAVYYCAARYSGSPYHTRRYYYWGQGTQVTVSS
polyreactivity (PSR sort gate): high polyreactivity

QVQLVESGGGLVQAGGSLRLSCAASGRIFFNYAMGWYRQAPGKERELVAAIRGGGSTYADSVKGRFTISRDNAKNTVYLQMNSLKPEDTAVYYCAARYSGSPYHTRRYYYWGQGTQVTVSS
polyreactivity (PSR sort gate): high polyreactivity

QVQLVESGGGLVQAGGSLRLSCAASGRIFFRYAMGWYRPAPGKEREFVAAISGSAGSTYYADSVKGRFKISRDNAKNTVYLQMNSLKPEDTAVYYCAARKAKVSNGLKYDYWGQGTQVTVSS
polyreactivity (PSR sort gate): high polyreactivity

QVQLVESGGGLVQAGGSLRLSCAASGRIFFSYAMGWYRQAPGKERELVAAITSGGSTNYADSVKGRFTISRDNAKNTVYLQMNSLKPEDTAVYYCNKARSSGYNFGYWGQGTQVTVSS
polyreactivity (PSR sort gate): low polyreactivity

QVQLVESGGGLVQAGGSLRLSCAASGRIFFTNAMGWYSQAPGKEREFVAAISKSGARTYYADSVKGRFTISRDNAKNTVYLQMISLKPEDTAVYYCAADVSVYGYYYWGQGTQVTVSS
polyreactivity (PSR sort gate): high polyreactivity

QVQLVESGGGLVQAGGSLRLSCAASGRIFFTYAMGWYRQAPGKERELVAAIDRSGTSTYYADSVKGRFTISRDNAKNTVYLQMNRLKPEDTAVYNCAARPNPNYDEMDYWGQGTQVNVSS
polyreactivity (PSR sort gate): low polyreactivity

QVQLVESGGGLVQAGGSLRLSCAASGRIFFTYTMGWYRQAPGKERELVAAITGGGARTYYADSVKGRFTISRDNSKNTVYLQMNSLKPEDTAVYYCAKGWQRIGFYYWGQGTQVTVSS
polyreactivity (PSR sort gate): high polyreactivity

QVQLVESGGGLVQAGGSLRLSCAASGRIFFTYTMGWYRQAPVNERELVAAITGGGARTYYADSVKVRFTISRDYAKNTVYLQMNSLKPEDSAVYYCAKGWQRIGFYYWGQGTQVTVSS
polyreactivity (PSR sort gate): high polyreactivity

QVQLVESGGGLVQAGGSLRLSCAASGRIFFYNTMGWYRQAPGKERELVATISWSGASTYYADSVKGRFTISRDNAKNTVYLQMNSLKPEDTAVDYCAAVTRYTGFDYWGQGTQVTVSS
polyreactivity (PSR sort gate): high polyreactivity

QVQLVESGGGLVQAGGSLRLSCAASGRIFFYYAMGWYRQAPGKEREFVAAISTSSGSTYYADSVKGRFTISRDNAKNTVYLQMNSLKPEDTAVYYCAADEVYSRGIWPVEDDYWGQGTQVTVSS
polyreactivity (PSR sort gate): low polyreactivity

QVQLVESGGGLVQAGGSLRLSCAASGRIFFYYAMGWYRQAPGKERELVATITASGDSTYYADSVKGRFTISRDNAKDTVYLQMNSLKPEDTAVYYCAADDGDYYEVDYWGQGTQVTVSS
polyreactivity (PSR sort gate): low polyreactivity

QVQLVESGGGLVQAGGSLRLSCAASGRIFFYYAMGWYRQAPGKEREMVAAISWSGSSTYYADSVKGRFTISRDNAKNTVYLQMNSLKPEDTAVYYCAADYYIDYFYYDYWGQGTQVTVSS
polyreactivity (PSR sort gate): high polyreactivity

QVQLVESGGGLVQAGGSLRLSCAASGRIFGAYAMGWSRQAPGKERELVAAITSRGGNTYYADSVKGRFTISRDNAKNTVYLQMNSVKPEDTAVYYCAARHDKRRQYYVGQSAFDYWGQGTQVTVSS
polyreactivity (PSR sort gate): low polyreactivity
